Data from US20040038249A1, “Inducible expression systems employing PPAR transcriptional activators” (priority 2002, published 2004).
Positions count from the first letter of the chain named.

B1: GSG: human PPARγ2 with GSCKG substitutions in the P-box (SEQ ID NO: 7) (protein)
chain: MGETLGDSPIDPESDSFTDTLSANISQEMTMVDTEMPFWPTNFGISSVDLSVMEDHSHSFDIKPFTTVDFSSISTPHYEDIPFTRTDPVVADYKYDLKLQEYQSAIKVEPASPPYYSEKTQLYNKPHEEPSNSLMAIECRVCGDKASGFHYGVHACGSCKGFFRRTIRLKLIYDRCDLNCRIHKKSRNKCQYCRFQKCLAVGMSHNAIRFGRMPQAEKEKLLAEISSDIDQLNPESADLRALAKHLYDSYIKSFPLTKAKARAILTGKTTDKSPFVIYDMNSLMMGEDKIKFKHITPLQEQSKEVAIRIFQGCQFRSVEAVQEITEYAKSIPGFVNLDLNDQVTLLKYGVHEIIYTMLASLMNKDGVLISEGQGFMTREFLKSLRKPFGDFMEPKFEFAVKFNALELDDSDLAIFIAVIILSGDRPGLLNVKPIEDIQDNLLQALELQLKLNHPESSQLFAKLLQKMTDLRQIVTEHVQLLQVIKKTETDMSLHPLLQEIYKDLY
modifications: PPAR gamma 2 recombinant polypeptide comprising GSCKG in Zinc finger domain
B2: GSV: human PPARγ2 with GSCKV substitutions in the P-box of the Zinc finger domain (SEQ ID NO: 8) (protein)
chain: B1 chain with G161V
modifications: PPAR gamma 2 recombinant polypeptide comprising GSCKV in Zinc finger domain

Tests used:
[1] = form not soluble in water, doses between 5 and 50 mg/kg, for example 30 mg/kg; cited from earlier work
[2] = tested on: PPAR Response Elements (PPREs) of wt origin or mutated response sequence (CYP4A6m1); test: Luciferase reporter cotransfection with PPAR polypeptide and response element plasmids; assay type: cell-based, murine; conditions: for luciferase activity from response elements: C2C12 murine myoblasts, untreated or treated with BRL49653 PPARγ ligand, panel of wt and mutated response elements
Excerpt: FIG. 2: Comparison of PPAR polypeptides derived from human PPARγ2 receptor. C2C12 murine myoblasts were cotransfected with a mixture of 3 different plasmids: (i) a plasmid expressing the wt or a mutated hPPARγ2; (ii) a plasmid in which the luc+ gene expression is driven by an inducible target sequence made of multiple PPAR Response Elements (PPREs) of wt origin (CYP4A6, CYP4A1 and HMG) or mutated response sequence (CYP4A6m1=SEQ ID No.: 26, CYP4A6m2=control with sequence 5′ GAACT AGGGCA A AGAACA 3′ (SEQ ID No.: 41), CYP4 μm=SEQ ID No.: 22, and HMGm=SEQ ID No.: 34); and (iii) a plasmid expressing the Renilla luciferase gene as an internal control of transfection efficiency. Measurement of luciferase activity for untreated cells (white bars) or cells treated with the BRL49653 PPARγ ligand (grey bars) is shown for each response element (left Y-axis). The relative induction level (x fold induction) resulting from ligand treatment is also shown (dots and right Y-axis)). Nomenclature for the PPAR amino acid sequences used refers to the first, second, and fifth (bolded) amino acid in the P-box of the Zinc finger domain, where wild type is EGCKG (see box in FIG. 1, panel B).
FIG. 3: DNA-binding specificity of the GSV mutant. C2C12 murine myoblasts were cotransfected with a mixture of 3 different plasmids: (i) a plasmid expressing the wt EGG or the GSV mutated hPPARγ2; (ii) a plasmid in which the luc+ gene expression is driven by an inducible target sequence made of multiple wt PPREs (apoAII, BIF, PPREcon, CYP4A1, CYP4A6, FABP, HMG and MEP cloned in sense (-S) or anti-sense (-AS) orientation) or the mutated response element (noted as “m” sequences in FIG. 6, such as CYP4A6m1=SEQ ID No.: 26); and (iii) a plasmid expressing the Renilla luciferase gene as an internal control of transfection efficiency. Expression levels for untreated cells (white) or cells treated with the BRL49653 PPARγ ligand (grey) are shown in left Y-axis and the relative induction (x fold induction) due to ligand treatment is shown in right Y-axis (dots).
One skilled in the art is familiar with protocols for transfecting plasmids into cell or infecting cells with virus. As an example, murine myoblasts (C2C12; ATCC: CRL1772) and human HEK293 (ATCC: CRL1573) cells are seeded in 24-well plates (7.5×10^4 cells per well) and grown for 24 h in DMEM supplemented with 10% FCS. Cells are washed in DMEM without serum and transfected in triplicate by adding to the cells 0.5 ml of OptiMEM mixed with various quantities of reporter gene (AP or luc) encoding plasmid, supplemented to 500 ng with a carrier plasmid and LipofectAMINE (2 μl for C2C12, 3 μl for HEK293). Five hours later, the medium containing the DNA and the LipofectAMINE is replaced by 1 ml of DMEM supplemented with FCS (2% for C2C12, 10% for HEK293). […]

Molecule	plasma concentration [1]	luciferase activity from response elements [2]	relative induction level resulting from ligand treatment ([2]; C2C12, BRL49653 treatment, CYP4A6m1 response element)	luciferase activity from response elements ([2]; listed as PPARγ2 (GSV))
CN(CCOc1ccc(CC2SC(=O)NC2=O)cc1)c1ccccn1 (centres unmarked) [BRL49653, rosiglitazone]	about 15 μg/ml	–	–	–
B1	–	particularly strong and selective	–	–
B2	–	highly selective	highest induction levels	specific for the CYP4A6m1
